Here are results for 2 molecules from article PMC8671394, “Paracrine FGFs target skeletal muscle to exert potent anti-hyperglycemic effects” (Nature Communications, 2021).

In experiment [1] the target is T1, soluble extracellular D2-D3 region of human FGFR1c (Asp142-Arg365) (human, UniProt P11362 142-365).
T1 construct: fibroblast growth factor receptor 1, 'c' splice isoform, human, extracellular D2-D3 region, residues Asp142-Arg365; also called FGFR1c ectodomain; FGFR1c isoform; source: E. coli (BL21), purified
T1 sequence (looked up): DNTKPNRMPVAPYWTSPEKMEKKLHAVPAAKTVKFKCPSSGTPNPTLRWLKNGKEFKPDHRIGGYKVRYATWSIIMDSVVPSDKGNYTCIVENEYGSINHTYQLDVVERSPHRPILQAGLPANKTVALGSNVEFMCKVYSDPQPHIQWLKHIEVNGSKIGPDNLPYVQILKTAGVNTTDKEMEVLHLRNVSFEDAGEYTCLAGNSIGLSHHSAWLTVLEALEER
As to the kind of experiment: SPR; BIAcore T200; HBS-EP buffer (10 mM HEPES-NaOH, pH 7.4, 150 mM NaCl, 3 mM EDTA, 0.005% Surfactant P20); which partner was immobilised is not told in the main text. To be noted: both partners purified.

Experiment [2] concerns the target T2, soluble extracellular D2-D3 region of human FGFR1c (Asp142-Arg365) (human, UniProt P11362 142-365).
T2 chain: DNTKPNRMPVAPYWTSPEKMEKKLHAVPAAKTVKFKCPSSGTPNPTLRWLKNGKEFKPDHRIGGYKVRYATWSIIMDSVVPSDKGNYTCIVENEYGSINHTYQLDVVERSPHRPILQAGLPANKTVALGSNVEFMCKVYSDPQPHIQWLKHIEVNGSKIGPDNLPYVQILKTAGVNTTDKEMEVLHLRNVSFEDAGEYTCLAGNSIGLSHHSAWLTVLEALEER
As to the kind of experiment: SPR.

B1: full length mature form human FGF4 (mFGF4) (Ala31-Leu206) (ligand, UniProt P08620 31-206, looked up)
chain: APTAPNGTLEAELERRWESLVALSLARLPVAAQPKEAAVQSGAGDYLLGIKRLRRLYCNVGIGFHLQALPDGRIGGAHADTRDSLLELSPVERGVVSIFGVASRFFVAMSSKGKLYGSPFFTDECTFKEILLPNNYNAYESYKYPGMFIALSKNGKTKKGNRVSPTMKVTHFLPRL
notes: fibroblast growth factor 4, human, full length mature form, residues Ala31-Leu206; also called wild-type parent molecule; source: E. coli (BL21), purified
B1: in experiment [1], the binding result is “binds”. The same molecule yielded a Kd in experiment [2] of 464 nM.

B2: N-terminally truncated human FGF4 (rFGF4) (Ala67-Leu206) (domain or fragment, UniProt P08620 67-206, looked up)
chain: AAVQSGAGDYLLGIKRLRRLYCNVGIGFHLQALPDGRIGGAHADTRDSLLELSPVERGVVSIFGVASRFFVAMSSKGKLYGSPFFTDECTFKEILLPNNYNAYESYKYPGMFIALSKNGKTKKGNRVSPTMKVTHFLPRL
notes: fibroblast growth factor 4, human, engineered N-terminal truncation, residues Ala67-Leu206; also called truncated rFGF4; source: E. coli (BL21), purified
Turning to B2, in experiment [1], the binding result is listed as “binds”. The same molecule had a Kd in experiment [2] of 716 nM.
